Biological target: EGFR on HeLa cells (UniProt P00533 25-1210, limits assumed)
Assay: cell-based or functional assay

X… HeLa EC50 [nM]	Binder	Max killing % [%]
–	GOMP001_bsAb_049 (bispecific antibody, human IgG1, kappa, L234A L235A) heavy 1: QVQLVQSGAEVKKPGASVKVSCKASGYTFTSHWMHWVRKAPGQGLEWIGEFNPSNGRTNYNEEFKSKATMTVDTSTNTAYMELSSLRSEDTAVYYCASRDYDYDGRYFDYWGQGTLVTVSSASTKGPSVFPLAPSSKSTSGGTAALGCLVADYFPEPVTVSWNSGALTSGVHTFPAVLQSSGLYSLSSVVTVPSSSLGTQTYICNVNHKPSNTKVDEKVEPKSCDKTHTCPPCPAPEAAGGPSVFLFPPKPKDTLMISRTPEVTCVVVDVSHEDPEVKFNWYVDGVEVHNAKTKPREEQYNSTYRVVSVLTVLHQDWLNGKEYKCKVSNKALPAPIEKTISKAKGQPREPQVYTLPPSREEMTDNQVSLTCLVKGFYPSDIAVEWESNGQPENNYKTTPPVLMSDGSFFLASKLTVDKSRWQQGNVFSCSVMHEALHNHYTQKSLSLSPG light 1: RIQMTQSPSSLSASVGDRVTITCSASSSVTYMYWYQDKPGKAPKLLIYDTSNLASGVPSRFSGSGSGTDYTFTISSLQPEDIATYYCQQWSSHIFTFGQGTKVEIKRTVAAPSVFIFPPSDKQLKSGTARVVCLLNNFYPREAKVQWKVDNALQSGNSQESVTEQDSKDSTYSLSSTLTLSKADYEKHKVYACEVTHQGLSSPVTKSFNRGEC heavy 2: QVQLVESGGGVVQPGRSLRLSCAASGFTFSTYGMHWVRYAPGKGLEWVAVIWYDGSHKYYADRVKGRFTISRDNSKKTLYLQMNSLRAEDTGIYYCARTGISGNMSYFYFDHWGRGILVTVSSASTKGPSVFPLAPSSKSTSGGTAALGCLVKDYFPEPVTVSWNSGALTSGVHTFPAVLQSSGLYSLSSVVTVPSSSLGTQTYICNVNHKPSNTKVDKKVEPKSCDKTHTCPPCPAPEAAGGPSVFLFPPKPKDTLMISRTPEVTCVVVDVSHEDPEVKFNWYVDGVEVHNAKTKPREEQYNSTYRVVSVLTVLHQDWLNGKEYKCKVSNKALPAPIEKTISKAKGQPRRPRVYTLPPSREEMTKNQVSLVCLVKGFYPSDIAVEWESNGQPENNYKTTPPVLDSDGSFFLYSVLTVDKSRWQQGNVFSCSVMHEALHNHYTQKSLSLSPG light 2: not shown	55.9
–	GOMP001_bsAb_051 (bispecific antibody, human IgG1, kappa, L234A L235A) heavy 1: QVQLVQSGAEVKKPGASVKVSCKASGYTFTSHWMHWVRKAPGQGLEWIGEFNPSNGRTNYNEEFKSKATMTVDTSTNTAYMELSSLRSEDTAVYYCASRDYDYDGRYFDYWGQGTLVTVSSASTKGPSVFPLAPSSKSTSGGTAALGCLVADYFPEPVTVSWNSGALTSGVHTFPAVLQSSGLYSLSSVVTVPSSSLGTQTYICNVNHKPSNTKVDEKVEPKSCDKTHTCPPCPAPEAAGGPSVFLFPPKPKDTLMISRTPEVTCVVVDVSHEDPEVKFNWYVDGVEVHNAKTKPREEQYNSTYRVVSVLTVLHQDWLNGKEYKCKVSNKALPAPIEKTISKAKGQPREPQVYTLPPSREEMTDNQVSLTCLVKGFYPSDIAVEWESNGQPENNYKTTPPVLMSDGSFFLASKLTVDKSRWQQGNVFSCSVMHEALHNHYTQKSLSLSPG light 1: RIQMTQSPSSLSASVGDRVTITCSASSSVTYMYWYQDKPGKAPKLLIYDTSNLASGVPSRFSGSGSGTDYTFTISSLQPEDIATYYCQQWSSHIFTFGQGTKVEIKRTVAAPSVFIFPPSDKQLKSGTARVVCLLNNFYPREAKVQWKVDNALQSGNSQESVTEQDSKDSTYSLSSTLTLSKADYEKHKVYACEVTHQGLSSPVTKSFNRGEC heavy 2: QVQLVQSGAEVKKPGASVKVSCKASGYTFTSYYIHWVRYAPGQGLDWMGIINPSGGITGYAQKLQGRVTMTRDTSTTTVYMELSSLRSDDTAVYYCARGVRGNYYYYYMDVWGRGTTVTVSSASTKGPSVFPLAPSSKSTSGGTAALGCLVKDYFPEPVTVSWNSGALTSGVHTFPAVLQSSGLYSLSSVVTVPSSSLGTQTYICNVNHKPSNTKVDKKVEPKSCDKTHTCPPCPAPEAAGGPSVFLFPPKPKDTLMISRTPEVTCVVVDVSHEDPEVKFNWYVDGVEVHNAKTKPREEQYNSTYRVVSVLTVLHQDWLNGKEYKCKVSNKALPAPIEKTISKAKGQPRRPRVYTLPPSREEMTKNQVSLVCLVKGFYPSDIAVEWESNGQPENNYKTTPPVLDSDGSFFLYSVLTVDKSRWQQGNVFSCSVMHEALHNHYTQKSLSLSPG light 2: EIVLTQSPDFQSVTPKEKVTITCRASQSIGSKLHWYQRKPDDSPKLLIKYASQSFSGVPSRFSGSGSGTDFNLTINSLEAEDAATFYCHQSSGLPYTFGQGTKLEIKRTVAAPSVFIFPPSDEQLKSGTASVVCLLNNFYPREAKVQWKVDNALQSGNSQESVTEQDSKDSTYSLSSTLTLSKADYEKHKVYACEVTHQGLSSPVTKSFNRGEC	60.2
–	GOMP001_bsAb_050 (bispecific antibody, human IgG1, kappa, L234A L235A) heavy 1: QVQLVESGGGVVQPGRSLRLSCAASGFTFSTYGMHWVRKAPGKGLEWVAVIWYDGSHKYYADEVKGRFTISRDNSKKTLYLQMNSLRAEDTGIYYCARTGISGNMSYFYFDHWGQGILVTVSSASTKGPSVFPLAPSSKSTSGGTAALGCLVADYFPEPVTVSWNSGALTSGVHTFPAVLQSSGLYSLSSVVTVPSSSLGTQTYICNVNHKPSNTKVDEKVEPKSCDKTHTCPPCPAPEAAGGPSVFLFPPKPKDTLMISRTPEVTCVVVDVSHEDPEVKFNWYVDGVEVHNAKTKPREEQYNSTYRVVSVLTVLHQDWLNGKEYKCKVSNKALPAPIEKTISKAKGQPREPQVYTLPPSREEMTDNQVSLTCLVKGFYPSDIAVEWESNGQPENNYKTTPPVLMSDGSFFLASKLTVDKSRWQQGNVFSCSVMHEALHNHYTQKSLSLSPG light 1: not shown heavy 2: QVQLVQSGAEVKKPGASVKVSCKASGYTFTSHWMHWVRYAPGQGLEWIGEFNPSNGRTNYNEKFKSKATMTVDTSTNTAYMELSSLRSEDTAVYYCASRDYDYDGRYFDYWGRGTLVTVSSASTKGPSVFPLAPSSKSTSGGTAALGCLVKDYFPEPVTVSWNSGALTSGVHTFPAVLQSSGLYSLSSVVTVPSSSLGTQTYICNVNHKPSNTKVDKKVEPKSCDKTHTCPPCPAPEAAGGPSVFLFPPKPKDTLMISRTPEVTCVVVDVSHEDPEVKFNWYVDGVEVHNAKTKPREEQYNSTYRVVSVLTVLHQDWLNGKEYKCKVSNKALPAPIEKTISKAKGQPRRPRVYTLPPSREEMTKNQVSLVCLVKGFYPSDIAVEWESNGQPENNYKTTPPVLDSDGSFFLYSVLTVDKSRWQQGNVFSCSVMHEALHNHYTQKSLSLSPG light 2: DIQMTQSPSSLSASVGDRVTITCSASSSVTYMYWYQRKPGDAPKLLIYDTSNLASGVPSRFSGSGSGTDYTFTISSLQPEDIATYYCQQWSSHIFTFGQGTKVEIKRTVAAPSVFIFPPSDEQLKSGTASVVCLLNNFYPREAKVQWKVDNALQSGNSQESVTEQDSKDSTYSLSSTLTLSKADYEKHKVYACEVTHQGLSSPVTKSFNRGEC	57
0.182	GOMP001_bsAb_055 (bispecific antibody, human IgG1, kappa, L234A L235A) heavy 1: QVQLVQSGAEVKKPGASVKVSCKASGYTFTSHWMHWVRKAPGQGLEWIGEFNPSNGRTNYNEEFKSKATMTVDTSTNTAYMELSSLRSEDTAVYYCASRDYDYDGRYFDYWGQGTLVTVSSASTKGPSVFPLAPSSKSTSGGTAALGCLVADYFPEPVTVSWNSGALTSGVHTFPAVLQSSGLYSLSSVVTVPSSSLGTQTYICNVNHKPSNTKVDEKVEPKSCDKTHTCPPCPAPEAAGGPSVFLFPPKPKDTLMISRTPEVTCVVVDVSHEDPEVKFNWYVDGVEVHNAKTKPREEQYNSTYRVVSVLTVLHQDWLNGKEYKCKVSNKALPAPIEKTISKAKGQPREPQVYTLPPSREEMTDNQVSLTCLVKGFYPSDIAVEWESNGQPENNYKTTPPVLMSDGSFFLASKLTVDKSRWQQGNVFSCSVMHEALHNHYTQKSLSLSPG light 1: RIQMTQSPSSLSASVGDRVTITCSASSSVTYMYWYQDKPGKAPKLLIYDTSNLASGVPSRFSGSGSGTDYTFTISSLQPEDIATYYCQQWSSHIFTFGQGTKVEIKRTVAAPSVFIFPPSDKQLKSGTARVVCLLNNFYPREAKVQWKVDNALQSGNSQESVTEQDSKDSTYSLSSTLTLSKADYEKHKVYACEVTHQGLSSPVTKSFNRGEC heavy 2: EVNLVESGGGLVQPGRSLRLSCAASGFTFDDYTMHWVRYVPGKGLEWVSNISWNSGSLGYADRVKGRFTISRDNAKDSLYLQMNSLRVEDTALYYCAKDSSGYGHYNSYYMDVWGRGTTVTVSSASTKGPSVFPLAPSSKSTSGGTAALGCLVKDYFPEPVTVSWNSGALTSGVHTFPAVLQSSGLYSLSSVVTVPSSSLGTQTYICNVNHKPSNTKVDKKVEPKSCDKTHTCPPCPAPEAAGGPSVFLFPPKPKDTLMISRTPEVTCVVVDVSHEDPEVKFNWYVDGVEVHNAKTKPREEQYNSTYRVVSVLTVLHQDWLNGKEYKCKVSNKALPAPIEKTISKAKGQPRRPRVYTLPPSREEMTKNQVSLVCLVKGFYPSDIAVEWESNGQPENNYKTTPPVLDSDGSFFLYSVLTVDKSRWQQGNVFSCSVMHEALHNHYTQKSLSLSPG light 2: DIQMTQSPSSLSASVGDRVTITCRASQSIRNYLNWYQRKPGDAPKVLIYSASSLQSGVPSRFSGSGSGTDFTLTISSLQPEDFASFYCQQTYSTPITFGQGTRLEIKRTVAAPSVFIFPPSDEQLKSGTASVVCLLNNFYPREAKVQWKVDNALQSGNSQESVTEQDSKDSTYSLSSTLTLSKADYEKHKVYACEVTHQGLSSPVTKSFNRGEC	78
0.0135	GOMP001_bsAb_056 (bispecific antibody) heavy 1: EVNLVESGGGLVQPGRSLRLSCAASGFTFDDYTMHWVRKVPGKGLEWVSNISWNSGSLGYADEVKGRFTISRDNAKDSLYLQMNSLRVEDTALYYCAKDSSGYGHYNSYYMDVWGKGTTVTVSSASTKGPSVFPLAPSSKSTSGGTAALGCLVADYFPEPVTVSWNSGALTSGVHTFPAVLQSSGLYSLSSVVTVPSSSLGTQTYICNVNHKPSNTKVDEKVEPKSCDKTHTCPPCPAPEAAGGPSVFLFPPKPKDTLMISRTPEVTCVVVDVSHEDPEVKFNWYVDGVEVHNAKTKPREEQYNSTYRVVSVLTVLHQDWLNGKEYKCKVSNKALPAPIEKTISKAKGQPREPQVYTLPPSREEMTDNQVSLTCLVKGFYPSDIAVEWESNGQPENNYKTTPPVLMSDGSFFLASKLTVDKSRWQQGNVFSCSVMHEALHNHYTQKSLSLSPG light 1: RIQMTQSPSSLSASVGDRVTITCRASQSIRNYLNWYQDKPGKAPKVLIYSASSLQSGVPSRFSGSGSGTDFTLTISSLQPEDFASFYCQQTYSTPITFGQGTRLEIKRTVAAPSVFIFPPSDKQLKSGTARVVCLLNNFYPREAKVQWKVDNALQSGNSQESVTEQDSKDSTYSLSSTLTLSKADYEKHKVYACEVTHQGLSSPVTKSFNRGEC heavy 2: QVQLVQSGAEVKKPGASVKVSCKASGYTFTSHWMHWVRYAPGQGLEWIGEFNPSNGRTNYNEKFKSKATMTVDTSTNTAYMELSSLRSEDTAVYYCASRDYDYDGRYFDYWGRGTLVTVSSASTKGPSVFPLAPSSKSTSGGTAALGCLVKDYFPEPVTVSWNSGALTSGVHTFPAVLQSSGLYSLSSVVTVPSSSLGTQTYICNVNHKPSNTKVDKKVEPKSCDKTHTCPPCPAPEAAGGPSVFLFPPKPKDTLMISRTPEVTCVVVDVSHEDPEVKFNWYVDGVEVHNAKTKPREEQYNSTYRVVSVLTVLHQDWLNGKEYKCKVSNKALPAPIEKTISKAKGQPRRPRVYTLPPSREEMTKNQVSLVCLVKGFYPSDIAVEWESNGQPENNYKTTPPVLDSDGSFFLYSVLTVDKSRWQQGNVFSCSVMHEALHNHYTQKSLSLSPG light 2: DIQMTQSPSSLSASVGDRVTITCSASSSVTYMYWYQRKPGDAPKLLIYDTSNLASGVPSRFSGSGSGTDYTFTISSLQPEDIATYYCQQWSSHIFTFGQGTKVEIKRTVAAPSVFIFPPSDEQLKSGTASVVCLLNNFYPREAKVQWKVDNALQSGNSQESVTEQDSKDSTYSLSSTLTLSKADYEKHKVYACEVTHQGLSSPVTKSFNRGEC	96.3

Reference: patent publication US20230295310A1 (ABCELLERA BIOLOGICS, published 2023)
